Consider 11 molecules from patent US20240294623A1 (SCHOLAR ROCK, published 2024).

In assay [1] the target is T1, hLTBP1-proTGFβ1 (human, UniProt Q14766 347-1721; P01137 30-390, limits assumed). Kind of assay: cell-based or functional assay.
The target in assay [2] is T2, hLTBP3-proTGFβ1 (human, UniProt Q9NS15 44-1303; P01137 30-390, limits assumed). Kind of assay: cell-based or functional assay.
The target of assay [3] is T3, hLRRC33-proTGFβ1 (human, UniProt Q86YC3 19-650; P01137 30-390, limits assumed). Put plainly: cell-based or functional assay.
The target of assay [4] is T4, hGARP-proTGFβ1 (human, UniProt Q14392 18-627; P01137 30-390, limits assumed). Kind of assay: cell-based or functional assay.
In assay [5] the target is T1, hLTBP1-proTGFβ1. Put plainly: BLI (Octet). A general note: Biolayer interferometry detects binding as a change in optical thickness at a sensor tip.
For assay [6], the target named is T2, hLTBP3-proTGFβ1. Kind of assay: BLI (Octet).
Assay [7] concerns the target T3, hLRRC33-proTGFβ1. Put plainly: BLI (Octet).
Assay [8] has as its target T4, hGARP-proTGFβ1. Kind of assay: BLI (Octet).
The target in assay [9] is T1, hLTBP1-proTGFβ1. Put plainly: MSD-SET, hIgG4. As to the method: (§1) For solution equilibrium titration-based binding assays, protein complexes that comprise one of the presenting molecules such as those shown above may be employed as antigen (presenting molecule-TGFβ1 complex, or an LLC). Test antibodies are allowed to form antigen-antibody complex in solution. Antigen-antibody reaction mixtures are incubated to allow an equilibrium to be reached; the amount of the antigen-antibody complex present in the assay reactions can be measured by suitable means well known in the art. As compared to BLI-based assays, SET-based assays are less affected by on/off rates of the antigen-antibody complex, allowing sensitive detection of very high affinity interactions.

For assay [10], the target named is T2, hLTBP3-proTGFβ1. Kind of assay: MSD-SET, hIgG4. As to the method: as §1
Assay [11] addresses T3, hLRRC33-proTGFβ1. Put plainly: MSD-SET, hIgG4. As to the method: as §1
Assay [12] deals with T4, hGARP-proTGFβ1. Kind of assay: MSD-SET, hIgG4. As to the method: as §1

T1 sequence (Q14766 347-1721 limits assumed, chain 1 of 2): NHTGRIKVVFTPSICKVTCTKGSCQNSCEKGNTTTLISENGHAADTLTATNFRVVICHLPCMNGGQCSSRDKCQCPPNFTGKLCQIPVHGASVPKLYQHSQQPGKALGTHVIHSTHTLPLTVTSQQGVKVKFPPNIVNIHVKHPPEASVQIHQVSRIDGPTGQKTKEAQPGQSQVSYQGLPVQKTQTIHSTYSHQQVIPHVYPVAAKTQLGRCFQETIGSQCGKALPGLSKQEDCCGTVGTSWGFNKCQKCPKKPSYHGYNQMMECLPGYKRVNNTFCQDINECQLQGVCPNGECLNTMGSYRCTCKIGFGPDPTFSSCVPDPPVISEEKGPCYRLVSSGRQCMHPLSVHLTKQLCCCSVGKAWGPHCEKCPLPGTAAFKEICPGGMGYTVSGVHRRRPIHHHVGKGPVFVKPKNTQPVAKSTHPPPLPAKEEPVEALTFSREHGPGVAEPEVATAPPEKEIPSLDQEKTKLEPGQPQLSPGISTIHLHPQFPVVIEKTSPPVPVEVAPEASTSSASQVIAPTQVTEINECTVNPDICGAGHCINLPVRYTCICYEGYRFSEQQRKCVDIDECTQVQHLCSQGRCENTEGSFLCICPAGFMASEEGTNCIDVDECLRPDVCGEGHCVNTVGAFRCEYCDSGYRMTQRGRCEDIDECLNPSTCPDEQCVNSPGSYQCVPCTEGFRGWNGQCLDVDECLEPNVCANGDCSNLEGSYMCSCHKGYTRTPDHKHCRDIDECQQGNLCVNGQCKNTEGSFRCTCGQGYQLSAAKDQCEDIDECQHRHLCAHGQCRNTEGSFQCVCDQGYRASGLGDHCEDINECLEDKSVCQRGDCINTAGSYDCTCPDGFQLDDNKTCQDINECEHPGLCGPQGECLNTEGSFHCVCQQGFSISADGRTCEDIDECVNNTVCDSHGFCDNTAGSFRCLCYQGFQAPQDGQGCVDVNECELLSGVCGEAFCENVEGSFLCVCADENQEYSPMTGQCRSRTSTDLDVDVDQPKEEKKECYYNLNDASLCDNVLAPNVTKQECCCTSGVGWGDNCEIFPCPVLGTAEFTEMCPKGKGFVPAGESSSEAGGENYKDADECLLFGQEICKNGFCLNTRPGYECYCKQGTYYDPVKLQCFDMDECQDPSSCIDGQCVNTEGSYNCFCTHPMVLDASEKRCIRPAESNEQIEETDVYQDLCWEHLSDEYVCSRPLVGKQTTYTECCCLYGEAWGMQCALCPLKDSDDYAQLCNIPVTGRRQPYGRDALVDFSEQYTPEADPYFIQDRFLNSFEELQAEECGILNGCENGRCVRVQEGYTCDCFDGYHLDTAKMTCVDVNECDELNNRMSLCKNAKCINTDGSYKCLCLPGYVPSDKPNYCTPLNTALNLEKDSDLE
T1 sequence (P01137 30-390 limits assumed, chain 2 of 2): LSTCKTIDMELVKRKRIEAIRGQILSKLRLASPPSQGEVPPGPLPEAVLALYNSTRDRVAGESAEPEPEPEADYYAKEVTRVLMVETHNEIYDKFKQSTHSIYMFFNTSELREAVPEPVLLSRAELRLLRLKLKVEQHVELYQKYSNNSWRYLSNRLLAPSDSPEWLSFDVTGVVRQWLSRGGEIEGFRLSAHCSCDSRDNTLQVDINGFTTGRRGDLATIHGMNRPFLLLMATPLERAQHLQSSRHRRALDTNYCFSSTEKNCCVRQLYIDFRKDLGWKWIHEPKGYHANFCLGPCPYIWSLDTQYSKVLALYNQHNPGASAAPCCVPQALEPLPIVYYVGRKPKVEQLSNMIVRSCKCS
T2 sequence (Q9NS15 44-1303 limits assumed, chain 1 of 2): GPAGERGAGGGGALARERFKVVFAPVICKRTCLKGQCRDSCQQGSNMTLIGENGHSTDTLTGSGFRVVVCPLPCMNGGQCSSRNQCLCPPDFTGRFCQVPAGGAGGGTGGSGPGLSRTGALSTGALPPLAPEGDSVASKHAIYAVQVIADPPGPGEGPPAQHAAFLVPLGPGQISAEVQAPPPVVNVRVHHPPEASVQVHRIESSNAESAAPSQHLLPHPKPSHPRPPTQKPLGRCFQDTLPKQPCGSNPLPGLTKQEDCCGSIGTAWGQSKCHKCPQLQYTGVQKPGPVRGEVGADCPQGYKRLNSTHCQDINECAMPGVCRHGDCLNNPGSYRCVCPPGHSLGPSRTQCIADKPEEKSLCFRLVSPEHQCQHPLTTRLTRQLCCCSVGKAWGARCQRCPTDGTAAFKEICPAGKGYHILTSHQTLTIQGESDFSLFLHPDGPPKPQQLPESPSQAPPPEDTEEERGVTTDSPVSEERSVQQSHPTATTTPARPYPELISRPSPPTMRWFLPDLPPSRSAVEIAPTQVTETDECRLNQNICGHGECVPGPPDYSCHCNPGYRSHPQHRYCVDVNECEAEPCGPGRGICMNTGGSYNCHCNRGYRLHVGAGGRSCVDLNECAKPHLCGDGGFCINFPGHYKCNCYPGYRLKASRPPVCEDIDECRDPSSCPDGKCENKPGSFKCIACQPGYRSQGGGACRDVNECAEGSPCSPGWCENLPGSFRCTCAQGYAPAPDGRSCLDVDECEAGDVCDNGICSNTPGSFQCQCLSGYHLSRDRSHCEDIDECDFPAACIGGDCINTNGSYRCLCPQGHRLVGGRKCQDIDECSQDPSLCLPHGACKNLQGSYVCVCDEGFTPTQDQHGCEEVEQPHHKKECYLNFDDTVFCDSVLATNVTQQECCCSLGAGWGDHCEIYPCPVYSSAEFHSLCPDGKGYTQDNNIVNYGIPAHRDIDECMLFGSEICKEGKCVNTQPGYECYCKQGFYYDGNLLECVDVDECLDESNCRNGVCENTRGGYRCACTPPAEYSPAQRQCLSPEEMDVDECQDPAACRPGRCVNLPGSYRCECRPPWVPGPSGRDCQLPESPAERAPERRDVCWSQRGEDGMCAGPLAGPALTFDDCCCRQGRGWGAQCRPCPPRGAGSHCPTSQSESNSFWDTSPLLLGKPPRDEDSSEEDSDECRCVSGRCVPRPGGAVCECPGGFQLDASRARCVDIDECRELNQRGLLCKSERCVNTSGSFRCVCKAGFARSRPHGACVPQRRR
T2 sequence (P01137 30-390 limits assumed, chain 2 of 2): as the sequence (P01137 30-390 limits assumed, chain 2 of 2) above
T3 sequence (Q86YC3 19-650 limits assumed, chain 1 of 2): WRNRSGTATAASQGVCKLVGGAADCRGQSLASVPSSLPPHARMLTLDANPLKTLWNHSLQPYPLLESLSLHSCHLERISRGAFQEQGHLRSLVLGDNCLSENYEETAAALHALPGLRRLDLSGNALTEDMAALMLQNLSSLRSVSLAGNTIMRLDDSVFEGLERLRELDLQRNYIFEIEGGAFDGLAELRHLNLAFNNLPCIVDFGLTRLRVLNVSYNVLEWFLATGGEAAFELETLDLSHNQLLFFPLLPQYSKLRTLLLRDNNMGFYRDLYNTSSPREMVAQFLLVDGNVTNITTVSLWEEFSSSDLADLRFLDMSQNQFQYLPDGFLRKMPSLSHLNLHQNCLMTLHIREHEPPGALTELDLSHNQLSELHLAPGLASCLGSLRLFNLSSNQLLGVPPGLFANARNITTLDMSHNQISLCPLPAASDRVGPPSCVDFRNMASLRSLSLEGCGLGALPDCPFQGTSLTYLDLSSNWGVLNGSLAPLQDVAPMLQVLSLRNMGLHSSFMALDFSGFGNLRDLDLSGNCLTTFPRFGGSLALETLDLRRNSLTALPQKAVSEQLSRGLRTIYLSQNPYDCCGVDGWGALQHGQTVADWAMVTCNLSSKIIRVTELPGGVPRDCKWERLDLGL
T3 sequence (P01137 30-390 limits assumed, chain 2 of 2): as the sequence (P01137 30-390 limits assumed, chain 2 of 2) above
T4 sequence (Q14392 18-627 limits assumed, chain 1 of 2): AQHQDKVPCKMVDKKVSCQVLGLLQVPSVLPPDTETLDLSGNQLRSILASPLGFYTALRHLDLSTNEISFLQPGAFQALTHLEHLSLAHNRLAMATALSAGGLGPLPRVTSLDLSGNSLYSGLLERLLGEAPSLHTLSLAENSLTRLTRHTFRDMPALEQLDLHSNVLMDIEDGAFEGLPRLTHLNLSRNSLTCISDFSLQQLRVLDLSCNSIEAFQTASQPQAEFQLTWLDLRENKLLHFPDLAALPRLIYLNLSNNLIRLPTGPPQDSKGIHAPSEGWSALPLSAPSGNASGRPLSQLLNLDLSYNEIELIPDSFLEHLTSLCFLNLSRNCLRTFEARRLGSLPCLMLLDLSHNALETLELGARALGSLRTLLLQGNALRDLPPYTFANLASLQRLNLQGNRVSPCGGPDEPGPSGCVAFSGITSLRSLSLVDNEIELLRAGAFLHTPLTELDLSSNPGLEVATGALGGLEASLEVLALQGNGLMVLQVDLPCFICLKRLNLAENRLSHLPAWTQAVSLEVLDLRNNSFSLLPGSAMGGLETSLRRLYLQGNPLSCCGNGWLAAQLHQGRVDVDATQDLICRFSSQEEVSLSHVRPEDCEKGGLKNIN
T4 sequence (P01137 30-390 limits assumed, chain 2 of 2): as the sequence (P01137 30-390 limits assumed, chain 2 of 2) above

B1: Ab21 (antibody, V domains shown)
VH: EVQLVESGGGLVQPGGSLRLSCAASGFTFSSFSMDWVRQAPGKGLEWVSYISPDASTIYYADSVKGRFTISRDNAKNSLYLQMNSLRAEDTAVYYCARGVLDYGDMLDPWGQGTLVTVSS
VL: DIQMTQSPSSLSASVGDRVTITCQASQDITNYLNWYQQKPGKAPKLLIYDASNLETGVPSRFSGSGSGTDFTFTISSLQPEDIATYYCQQADNHPPWTFGGGTKVEIK
By Kd is commonly meant the equilibrium constant for the complex coming apart. Turning to B1, the “IC50, reporter cell assay” value in the assay with hLTBP1-proTGFβ1 [1] is 1.6 nM; with hLTBP3-proTGFβ1 [2], 0.8 nM; with hLRRC33-proTGFβ1 [3], 0.6 nM; with hGARP-proTGFβ1 [4] it was 0.4 nM. For the same molecule, the Kd with hLTBP1-proTGFβ1 [5] stood at 0.225 nM; with hLTBP3-proTGFβ1 [6], 0.268 nM; in the assay with hLRRC33-proTGFβ1 [7], 0.455 nM; with hGARP-proTGFβ1 [8] it was 0.833 nM.

B2: Ab5 (antibody, V domains shown)
VH: EVQLVESGGGLVQPGGSLRLSCAASGFTFSSFSMDWVRQAPGKGLEWVSYISPDASTIYYADSVKGRFTISRDNAKNSLYLQMNSLRAEDTAVYYCARGVLDYGDMLDPWGQGTLVTVSS
VL: DIQMTQSPSSLSASVGDRVTITCQASQDITNYLNWYQQKPGKAPKLLIYDASNLETGVPSRFSGSGSGTDFTFTISSLQPEDIATYYCQQADNHPPWTFGGGTKVEIK
Consider B2, for which the “IC50, reporter cell assay” value in the assay with hLTBP1-proTGFβ1 [1] was found to be 1.3 nM; with hLTBP3-proTGFβ1 [2], 1 nM; with hLRRC33-proTGFβ1 [3] it was 0.6 nM; with hGARP-proTGFβ1 [4], 0.1 nM.

B3: Ab27 (antibody, V domains shown)
VH: EVQLVESGGGLVQPGGSLRLSCAASGFTFSFYAMNWVRQAPGKGLEWVSYISPDASTIYYADSVKGRFTISRDNAKNSLYLQMNSLRAEDTAVYYCARGVLDYGDMLDPWGQGTLVTVSS
VL: DIQMTQSPSSLSASVGDRVTITCQASQDITNYLNWYQQKPGKAPKLLIYDASNLETGVPSRFSGSGSGTDFTFTISSLQPEDIATYYCQQADNHPPWTFGGGTKVEIK
For the molecule B3, the Kd with hLTBP1-proTGFβ1 [5] came to 0.178 nM; with hLTBP3-proTGFβ1 [6], 0.238 nM; with hLRRC33-proTGFβ1 [7], 0.299 nM; in the assay with hGARP-proTGFβ1 [8], 0.424 nM.

B4: Ab22 (antibody, V domains shown)
VH: EVQLVESGGGLVQPGGSLRLSCAASGFTFGSFSMNWVRQAPGKGLEWVSYIHSDASTIYYADSVKGRFTISRDNAKNSLYLQMNSLRAEDTAVYYCARGVLDYGDMLDPWGQGTLVTVSS
VL: DIQMTQSPSSLSASVGDRVTITCQASQDITNYLNWYQQKPGKAPKLLIYDASNLETGVPSRFSGSGSGTDFTFTISSLQPEDIATYYCQQADNHPPWTFGGGTKVEIK
Regarding B4, the dissociation constant Kd in the assay with hLTBP1-proTGFβ1 [5] was found to be 0.318 nM; with hLTBP3-proTGFβ1 [6] it was 0.329 nM; with hLRRC33-proTGFβ1 [7], 0.415 nM; in the assay with hGARP-proTGFβ1 [8] it was 0.974 nM; in the assay with hLTBP1-proTGFβ1 [9], 0.05 nM; in the assay with hLTBP3-proTGFβ1 [10], 0.033 nM. The dissociation constant Kd with hLRRC33-proTGFβ1 [11] was found to be 0.2 nM; in the assay with hGARP-proTGFβ1 [12], 0.027 nM.

B5: Ab32 (antibody, V domains shown)
VH: EVQLVESGGGLVQPGGSLRLSCAASGFTFSSFSMNWVRQAPGKGLEWVSYISPSADTIYYADSVKGRFTISRDNAKNTLYLQMNSLRAEDTAVYYCARGVWDMGDMLDPWGQGTLVTVSS
VL: DIQMTQSPSSLSASVGDRVTITCQASQDITNYLNWYQQKPGKAPKLLIYDASNLETGVPSRFSGSGSGTDFTFTISSLQPEDIATYYCQQADNHPPWTFGGGTKVEIK
Consider B5, for which the Kd with hLTBP1-proTGFβ1 [5] turned out to be 0.269 nM; with hLTBP3-proTGFβ1 [6], 0.215 nM; in the assay with hLRRC33-proTGFβ1 [7], 0.698 nM; with hGARP-proTGFβ1 [8], 0.496 nM; with hLTBP1-proTGFβ1 [9], 0.037 nM; with hLTBP3-proTGFβ1 [10] it was 0.026 nM. The results for the Kd with hLRRC33-proTGFβ1 [11] and with hGARP-proTGFβ1 [12] were 0.087 nM and 0.015 nM, respectively.

B6: Ab31 (antibody, V domains shown)
VH: EVQLVESGGGLVQPGGSLRLSCAASGFTFSSFSMDWVRQAPGKGLEWVSYISPDASTIYYADSVKGRFTISRDNAKNTLYLQMNSLRAEDTAVYYCARAVLDYGDMLDPWGQGTLVTVSS
VL: DIQMTQSPSSLSASVGDRVTITCQASQDITNYLNWYQQKPGKAPKLLIYDASNLETGVPSRFSGSGSGTDFTFTISSLQPEDIATYYCQQADNHPPWTFGGGTKVEIK
Consider B6, for which the dissociation constant Kd with hLTBP1-proTGFβ1 [5] came out at 0.236 nM; in the assay with hLTBP3-proTGFβ1 [6], 0.181 nM; in the assay with hLRRC33-proTGFβ1 [7], 0.41 nM; with hGARP-proTGFβ1 [8] it was 0.581 nM; with hLTBP1-proTGFβ1 [9], 0.019 nM; with hLTBP3-proTGFβ1 [10] it was 0.014 nM. Also, the Kd with hLRRC33-proTGFβ1 [11] stood at 0.096 nM; with hGARP-proTGFβ1 [12] it was 0.019 nM.

B7: Ab23 (antibody, V domains shown)
VH: EVQLVESGGGLVQPGGSLRLSCAASGFTFSSFSMNWVRQAPGKGLEWVSYISPSADTIYYADSVKGRFTISRDNAKNTLYLQMNSLRAEDTAVYYCARGVLDYGDMLDPWGQGTLVTVSS
VL: DIQMTQSPSSLSASVGDRVTITCQASQDITNYLNWYQQKPGKAPKLLIYDASNLETGVPSRFSGSGSGTDFTFTISSLQPEDIATYYCQQADNHPPWTFGGGTKVEIK
Turning to B7, the “IC50, reporter cell assay” value with hLTBP1-proTGFβ1 [1] was found to be 0.8 nM; with hLTBP3-proTGFβ1 [2], 0.9 nM; with hLRRC33-proTGFβ1 [3] it was 0.6 nM; with hGARP-proTGFβ1 [4], 0.3 nM. Moreover, the Kd in the assay with hLTBP1-proTGFβ1 [5] amounted to 0.417 nM; with hLTBP3-proTGFβ1 [6], 0.468 nM; with hLRRC33-proTGFβ1 [7], 0.455 nM; in the assay with hGARP-proTGFβ1 [8], 1.34 nM.

B8: Ab28 (antibody, V domains shown)
VH: EVQLVESGGGLVQPGGSLRLSCAASGFTFSSFSMDWVRQAPGKGLEWVSYISPDASTIYYADSVKGRFTISRDNAKNSLYLQMNSLRAEDTAVYYCVRGVLDYGDMLDPWGQGTLVTVSS
VL: DIQMTQSPSSLSASVGDRVTITCQASQDITNYLNWYQQKPGKAPKLLIYDASNLETGVPSRFSGSGSGTDFTFTISSLQPEDIATYYCQQADNHPPWTFGGGTKVEIK
Consider B8, for which the dissociation constant Kd with hLTBP1-proTGFβ1 [5] turned out to be 0.34 nM; with hLTBP3-proTGFβ1 [6] it was 0.316 nM; with hLRRC33-proTGFβ1 [7], 0.409 nM; in the assay with hGARP-proTGFβ1 [8], 0.797 nM.

B9: Ab25 (antibody, V domains shown)
VH: EVQLVESGGGLVQPGGSLRLSCAASGFTFGSFSMDWVRQAPGKGLEWVSYISPDASTIYYADSVKGRFTISRDNAKNSLYLQMNSLRAEDTAVYYCARGVLDYGDMLDPWGQGTLVTVSS
VL: DIQMTQSPSSLSASVGDRVTITCQASQDITNYLNWYQQKPGKAPKLLIYDASNLETGVPSRFSGSGSGTDFTFTISSLQPEDIATYYCQQADNHPPWTFGGGTKVEIK
On to B9, for which the “IC50, reporter cell assay” value with hLTBP1-proTGFβ1 [1] was 6.1 nM; with hLTBP3-proTGFβ1 [2] it was 0.51 nM; in the assay with hLRRC33-proTGFβ1 [3], 0.7 nM; with hGARP-proTGFβ1 [4], 0.4 nM. Besides, the Kd with hLTBP1-proTGFβ1 [5] came out at 0.217 nM; with hLTBP3-proTGFβ1 [6], 0.152 nM; with hLRRC33-proTGFβ1 [7], 0.409 nM; in the assay with hGARP-proTGFβ1 [8], 0.488 nM.

B10: Ab30 (antibody, V domains shown)
VH: EVQLVESGGGLVQPGGSLRLSCAASGFTFSSFSMDWVRQAPGKGLEWVSYISPDASTIYYADSVKGRFTISRDNAKNSLYLQMNSLRAEDTAVYYCARGTLDYGDMLDPWGQGTLVTVSS
VL: DIQMTQSPSSLSASVGDRVTITCQASQDITNYLNWYQQKPGKAPKLLIYDASNLETGVPSRFSGSGSGTDFTFTISSLQPEDIATYYCQQADNHPPWTFGGGTKVEIK
Regarding B10, the Kd in the assay with hLTBP1-proTGFβ1 [5] was 0.332 nM; in the assay with hLTBP3-proTGFβ1 [6], 0.261 nM; in the assay with hLRRC33-proTGFβ1 [7], 0.535 nM; with hGARP-proTGFβ1 [8], 0.833 nM; in the assay with hLTBP1-proTGFβ1 [9], 0.031 nM; with hLTBP3-proTGFβ1 [10] it was 0.026 nM. The Kd with hLRRC33-proTGFβ1 [11] stood at 0.14 nM; with hGARP-proTGFβ1 [12], 0.022 nM.

B11: Ab24 (antibody, V domains shown)
VH: EVQLVESGGGLVQPGRSLRLSCAASGFTFSSFAMYWVRQAPGKGLEWVSYISPDASTIYYADSVKGRFTISRDNAKNSLYLQMNSLRAEDTAVYYCARGVLDYGDMLDPWGQGTLVTVSS
VL: DIQMTQSPSSLSASVGDRVTITCQASQDITNYLNWYQQKPGKAPKLLIYDASNLETGVPSRFSGSGSGTDFTFTISSLQPEDIATYYCQQADNHPPWTFGGGTKVEIK
On to B11, for which the Kd came to 0.246 nM with hLTBP1-proTGFβ1 [5]; 0.198 nM with hLTBP3-proTGFβ1 [6]; 0.41 nM in the assay with hLRRC33-proTGFβ1 [7]; 0.665 nM with hGARP-proTGFβ1 [8]; 0.024 nM in the assay with hLTBP1-proTGFβ1 [9]; 0.021 nM in the assay with hLTBP3-proTGFβ1 [10]. The Kd is 0.18 nM in the assay with hLRRC33-proTGFβ1 [11] and 0.019 nM in the assay with hGARP-proTGFβ1 [12].
